# Tests used:
# CEF cells = test: Immunofluorescence binding assays on CEF cells; format: cell-based, chicken; settings: 4° C. or 37° C., CEF cells lack the hTfR
# CEF+hTfR cells = test: Immunofluorescence binding and internalization on CEF+hTfR cells; format: cell-based, chicken; settings: for endocytosis into CEF+hTfR cells (fluorescence after low pH buffer wash): 37° C., low pH buffer wash before fixation
# Description: Immunofluorescence: CEF+hTfR cells were grown on glass coverslips to 50% to 75% confluence. The coverslips were washed and incubated in serum-free Opti-MEM media at 37° C. for 1 hour. […] Cells were washed with Opti-MEM, then fixed in 3% formaldehyde for 30 minutes at 4° C. Alternatively, the cells were acid-washed with 0.2 M glycine-HCl, Ph 2.2, prior to fixation. A GFP monoclonal antibody (Clontech) was used in conjunction with an Oregon-Green Goat Anti-Mouse (Molecular Probes) to augment GFP fluorescence. All slides were counterstained with DAPI (2(4Amidinophenyl)-6indole carbamidinedihydrochioride) (Sigma). The microscopic slides were mounted in Prolong™ antifade medium (Molecular Probes). Images were captured on an AX70 microscope with Olympus Camera (Olympus, Melville, N.Y.) and analyzed with ESPRIT software (Life Science Resources, Cambridge, England). Final figures were assembled using Microsoft Power Point (Microsoft Corp., Redmond, Wash.).
# To evaluate the sufficiency of capacity of the peptides to mediate uptake of carrier protein, GFP fusion proteins were prepared. Immunofluorescence was used to determine if the GFP-peptides fusion constructs were internalized using the following assay. GFP-peptide constructs were cloned with a C-terminal peptide addition of either HAIYPRH (Seq. ID No. 1) (GFP-HAIYPRH) or […] (Seq. ID No. 2) (GFP-[…]). These constructs were expressed and purified to greater than 95% by Coomassie staining. Purified proteins were applied to CEF+hTfR cells at 4° C. (which prevents endocytosis) or at 37° C. […] This acid wash determined whether the protein was endocytosed by removing proteins bound at the cell surface. […]
# Immunofluorescence images of the localization of various proteins applied to CEF+hTfR cells at either 4° C. or 37° were studied. […] The total fluorescence shown could result from both cell surface and endocytosed proteins.
# The cells that had undergone a low pH buffer wash to enable identification of proteins that had been endocytosed were evaluated.
# [1] = target: T1, human transferrin receptor (hTfR) (Homo sapiens, UniProt P02786); test: Scatchard analysis of 125I-labelled protein binding to CEF+hTfR cells; settings: CEF+hTfR cells on ice, 1 hour, read-out: binding affinity (Scatchard)
# T1 construct: expressed in transfected cells; host or cells: chicken embryo fibroblasts (CEF+hTfR), stably transduced with a retroviral vector
# T1 sequence (P02786 whole entry): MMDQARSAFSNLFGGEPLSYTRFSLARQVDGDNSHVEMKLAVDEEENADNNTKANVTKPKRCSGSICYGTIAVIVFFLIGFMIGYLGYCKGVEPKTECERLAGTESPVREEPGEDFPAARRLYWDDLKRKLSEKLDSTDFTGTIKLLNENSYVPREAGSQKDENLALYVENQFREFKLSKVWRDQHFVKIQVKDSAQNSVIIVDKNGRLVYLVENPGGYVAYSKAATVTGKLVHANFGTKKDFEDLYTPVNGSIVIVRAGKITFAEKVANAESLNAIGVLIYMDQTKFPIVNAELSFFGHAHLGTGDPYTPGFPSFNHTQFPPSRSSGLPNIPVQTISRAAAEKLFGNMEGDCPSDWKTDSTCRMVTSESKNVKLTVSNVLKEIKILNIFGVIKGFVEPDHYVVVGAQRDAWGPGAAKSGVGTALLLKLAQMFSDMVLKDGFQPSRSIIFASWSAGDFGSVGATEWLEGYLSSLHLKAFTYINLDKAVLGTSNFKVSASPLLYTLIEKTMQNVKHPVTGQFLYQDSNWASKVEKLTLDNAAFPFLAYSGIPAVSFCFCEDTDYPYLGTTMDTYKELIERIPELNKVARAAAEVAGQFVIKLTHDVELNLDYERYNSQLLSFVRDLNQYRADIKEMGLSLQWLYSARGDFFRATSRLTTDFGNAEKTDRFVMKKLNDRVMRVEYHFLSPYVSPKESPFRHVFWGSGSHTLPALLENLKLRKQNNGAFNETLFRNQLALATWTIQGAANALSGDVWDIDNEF
# Description: 1M NaOH was added to lyse the cells for determining the bound fraction. Both unbound and bound fractions were counted in a gamma counter and binding affinities were determined using Scatchard analysis.
# Serial dilutions of labelled proteins were incubated with CEF+hTfR cells on ice in PBS-0.1% BSA in duplicate wells. After 1 hour, the unbound fraction was removed and cells were washed four times. Cells were removed from the well with 1N NaOH. The unbound and bound fractions were counted in a gamma counter and fmoles of bound and unbound were calculated. Scatchard plots were derived by plotting bound versus bound/free of an average value generated by the duplicate wells. A best of fit line was generated using the Excel program (Microsoft Corp.) and the binding affinities were determined by the slope of the plotted lines.
# [2] = target: T1, human transferrin receptor (hTfR); test: Competition studies of phage binding to CEF+hTfR cells; settings: competitor added prior to phage, 1 hour at 4° C.
# Description: Binding and Competition Studies: Purified phage populations were amplified and were verified to be homogenous through DNA sequencing. Cells were prepared for binding as was described for biopanning procedures. Preparations of plaque-purified and titered phage (1×10^11) were incubated in serum-free Opti-MEM on either CEF or CEF+hTfR cells at 4° C. for 1 hour. The cells were washed repeatedly with Opti-HEM and bound phage were eluted with low pH buffer and subsequently titered. In competition studies, holo-transferrin (Calbiochem, La Jolla, Calif.) or synthesized peptides were added to CEF+hTfR cells prior to addition of the phage for 1 hour at 4° C. Multiple trials were completed and average titers and standard deviations determined. The titers determined on CEF+hTfR cells were divided by the titers determined on CEF cells and multiplied by 100 to yield fold over control data points.
# Due to a synthesis error, a peptide with the sequence HAIYPNH (Seq. ID No. 14) was also synthesized.
substance,measurement,setting,value
"Tf: transferrin from human serum, native ligand of hTfR",binding or internalization on CEF cells,CEF cells,neither of the GFP fusion proteins or transferrin bound or internalized
"wtGFP: purified wild-type green fluorescent protein, negative control",localization/binding of protein on CEF+hTfR cells without acid wash,"CEF+hTfR cells; 37° C. for one hour, no acid wash",minimal binding
same,endocytosis into CEF+hTfR cells (fluorescence after low pH buffer wash),CEF+hTfR cells,unable to be endocytosed
same,Kd,[1],240 µM
"Texas-Red Tf: Tf conjugated to the Texas-Red fluorochrome, positive control",endocytosis into CEF+hTfR cells (fluorescence after low pH buffer wash),CEF+hTfR cells,readily endocytosed
HAIYPRH,competition of HAIYPRH phage binding to CEF+hTfR cells by added peptide or Tf,[2],competed away to background levels
same,competition of THRPPMWSPVWP phage binding to CEF+hTfR cells by added peptide or Tf,[2],failed to significantly compete
"HAIYPNH [peptide synthesized due to a synthesis error, asparagine in place of arginine]",competition of HAIYPRH phage binding to CEF+hTfR cells by added peptide or Tf,[2],no effect
PWRPSHPVWMPT,competition of THRPPMWSPVWP phage binding to CEF+hTfR cells by added peptide or Tf,[2],not by the scrambled 12-mer sequence
THRPPMWSPVWP,competition of HAIYPRH phage binding to CEF+hTfR cells by added peptide or Tf,[2],failed to significantly compete

# — patent US6743893B2, “Receptor-mediated uptake of peptides that bind the human transferrin receptor” (The UAB Research Foundation, priority 2000, dated 2004)
